The target in assay [1] is LAG-3 (as used in the Biacore assay) (UniProt P18627). In words: Biacore (SPR); format not described.
Assay [2] addresses soluble LAG-3 (human) (UniProt P18627). In words: population PK/PD target-mediated drug disposition model (quasi-equilibrium) fitted to antibody and total soluble LAG-3 concentrations in patient serum; model estimate.
For assay [3], the target named is LAG-3 (in the in vitro cell-based assays) (UniProt P18627). As to the kind of experiment: in vitro cell-based assays; format not described.

Kd data for one molecule are collected here from patent US20200172617A1.

B1: LAG525 (antibody, INN chains, looked up, V domains shown)
VH: QVQLVQSGAEVKKPGASVKVSCKASGFTLTNYGMNWVRQARGQRLEWIGWINTDTGEPTYADDFKGRFVFSLDTSVSTAYLQISSLKAEDTAVYYCARNPPYYYGTNNAEAMDYWGQGTTVTVSS
VL: DIQMTQSPSSLSASVGDRVTITCSSSQDISNYLNWYLQKPGQSPQLLIYYTSTLHLGVPSRFSGSGSGTEFTLTISSLQPDDFATYYCQQYYNLPWTFGQGTKVEIK
As to B1, the Kd in assay [1] is 0.1 nM; in assay [2] it was 1.5 nM; in assay [3], 1.9 to 2.3 nM.
